Measured values: the supplement of paper PMC9112550, “Optimization of the antimicrobial peptide Bac7 by deep mutational scanning” (BMC Biology, 2022)

Each sequence was assayed on Escherichia coli TOP10 (assay: shrunken log2 fold change of peptide-encoding DNA abundance (4.5 h post-induction vs induction); higher = less antimicrobial activity (less host growth inhibition)). Conditions: time post-induction: 4.5 h; library: site-saturation at positions 5, 18, 19, 20.
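Note: peptides expressed intracellularly from a pBAD plasmid library in pooled LB shake-flask culture, induced with 0.3% L-arabinose, DNA abundance read by NGS, three biological replicates, DESeq2 with apeglm shrinkage.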

Row | Sequence | shrunken log2 fold change
1 | RRIRARPPRLPRPRPRPQQTPRP | 0.141
2 | RRIRERPPRLPRPRPRPVPTPRP | 0.116
3 | RRIRMRPPRLPRPRPRPFHYPRP | -0.63
4 | RRIRTRPPRLPRPRPRPLQMPRP | 0.2
5 | RRIRHRPPRLPRPRPRPLHFPRP | -0.0265
6 | RRIRLRPPRLPRPRPRPFGDPRP | -0.186
7 | RRIRKRPPRLPRPRPRPFFFPRP | 0.779
8 | RRIRRRPPRLPRPRPRPHHYPRP | -0.168
9 | RRIRQRPPRLPRPRPRPFLIPRP | -1.81
10 | RRIRKRPPRLPRPRPRPTCVPRP | 0.241
11 | RRIRERPPRLPRPRPRPCFFPRP | -0.331
12 | RRIRMRPPRLPRPRPRPPGTPRP | 1.05
13 | RRIRIRPPRLPRPRPRPYCYPRP | -0.0959
14 | RRIRRRPPRLPRPRPRPNASPRP | -0.0114
15 | RRIRHRPPRLPRPRPRPGFQPRP | -0.0167
16 | RRIRFRPPRLPRPRPRPVEQPRP | -0.0448
17 | RRIRRRPPRLPRPRPRPWTAPRP | -0.106
18 | RRIRARPPRLPRPRPRPRIYPRP | -0.0488
19 | RRIRDRPPRLPRPRPRPLVDPRP | 0.11
20 | RRIRTRPPRLPRPRPRPDNVPRP | -0.881
21 | RRIRPRPPRLPRPRPRPAFSPRP | 0.117
22 | RRIRGRPPRLPRPRPRPYSKPRP | -0.2
23 | RRIRHRPPRLPRPRPRPKFMPRP | -0.497
24 | RRIRWRPPRLPRPRPRPAESPRP | 0.0626
25 | RRIRSRPPRLPRPRPRPYSRPRP | -0.00979

Row | Sequence | shrunken log2 fold change
26 | RRIRCRPPRLPRPRPRPGPKPRP | 0.3
27 | RRIRSRPPRLPRPRPRPWDRPRP | -0.0645
28 | RRIRFRPPRLPRPRPRPFQHPRP | -0.209
29 | RRIRCRPPRLPRPRPRPRVAPRP | 0.293
30 | RRIRKRPPRLPRPRPRPHRSPRP | 0.0882
31 | RRIRTRPPRLPRPRPRPCSCPRP | -0.0701
32 | RRIRQRPPRLPRPRPRPEIKPRP | -0.342
33 | RRIRYRPPRLPRPRPRPKQCPRP | -0.17
34 | RRIRGRPPRLPRPRPRPCKVPRP | 0.00141
35 | RRIRCRPPRLPRPRPRPWLQPRP | -0.199
36 | RRIRKRPPRLPRPRPRPCWPPRP | 0.0513
37 | RRIRPRPPRLPRPRPRPNFCPRP | 0.257
38 | RRIRHRPPRLPRPRPRPRPKPRP | -0.0808
39 | RRIRMRPPRLPRPRPRPHNHPRP | -0.239
40 | RRIRWRPPRLPRPRPRPCRCPRP | -0.0961
41 | RRIRIRPPRLPRPRPRPWTMPRP | -0.163
42 | RRIRLRPPRLPRPRPRPWYGPRP | -0.53
43 | RRIRKRPPRLPRPRPRPYPGPRP | -0.142
44 | RRIRQRPPRLPRPRPRPESHPRP | -0.159
45 | RRIRARPPRLPRPRPRPYEWPRP | -0.0646
46 | RRIRFRPPRLPRPRPRPAYFPRP | -0.108
47 | RRIRIRPPRLPRPRPRPRFAPRP | 0.129
48 | RRIRFRPPRLPRPRPRPNRQPRP | -0.564
49 | RRIRCRPPRLPRPRPRPFQTPRP | -0.153
50 | RRIRGRPPRLPRPRPRPYLDPRP | 0.0767

Row | Sequence | shrunken log2 fold change
51 | RRIRERPPRLPRPRPRPAPEPRP | 0.236
52 | RRIRHRPPRLPRPRPRPGNIPRP | -0.227
53 | RRIRCRPPRLPRPRPRPWNLPRP | -0.19
54 | RRIRYRPPRLPRPRPRPPDCPRP | -0.00396
55 | RRIRYRPPRLPRPRPRPIKPPRP | -0.0229
56 | RRIRVRPPRLPRPRPRPRHPPRP | 0.278
57 | RRIRMRPPRLPRPRPRPVNPPRP | 0.00934
58 | RRIRERPPRLPRPRPRPTDFPRP | -0.13
59 | RRIRVRPPRLPRPRPRPDASPRP | 0.0719
60 | RRIRKRPPRLPRPRPRPCSMPRP | -0.00483
61 | RRIRWRPPRLPRPRPRPMTAPRP | 0.473
62 | RRIRYRPPRLPRPRPRPSWMPRP | -0.534
63 | RRIRFRPPRLPRPRPRPSKGPRP | -0.115
64 | RRIRYRPPRLPRPRPRPANQPRP | -0.131
65 | RRIRMRPPRLPRPRPRPATIPRP | 0.23
66 | RRIRCRPPRLPRPRPRPPFGPRP | 0.213
67 | RRIRIRPPRLPRPRPRPYESPRP | -0.0135
68 | RRIRPRPPRLPRPRPRPKHEPRP | 0.0756
69 | RRIRQRPPRLPRPRPRPPHPPRP | 0.548
70 | RRIRHRPPRLPRPRPRPAVKPRP | -0.0915
71 | RRIRYRPPRLPRPRPRPTDQPRP | -0.175
72 | RRIRERPPRLPRPRPRPEYLPRP | -1.13
73 | RRIRPRPPRLPRPRPRPYDLPRP | -0.293
74 | RRIRWRPPRLPRPRPRPQNLPRP | -0.103
75 | RRIRARPPRLPRPRPRPVYFPRP | -0.135

Row | Sequence | shrunken log2 fold change
76 | RRIRLRPPRLPRPRPRPNSSPRP | -0.11
77 | RRIRCRPPRLPRPRPRPILVPRP | -0.0457
78 | RRIRPRPPRLPRPRPRPYGHPRP | 0.0138
79 | RRIRLRPPRLPRPRPRPHFYPRP | -0.303
80 | RRIRLRPPRLPRPRPRPVFTPRP | -0.135
81 | RRIRKRPPRLPRPRPRPFQQPRP | 0.202
82 | RRIRGRPPRLPRPRPRPMQTPRP | 0.0492
83 | RRIRNRPPRLPRPRPRPRLCPRP | 0.121
84 | RRIRVRPPRLPRPRPRPLIAPRP | -0.0308
85 | RRIRERPPRLPRPRPRPNTHPRP | -0.704
86 | RRIRCRPPRLPRPRPRPIWTPRP | -0.0919
87 | RRIRQRPPRLPRPRPRPQSDPRP | -0.00542
88 | RRIRKRPPRLPRPRPRPSHIPRP | 0.156
89 | RRIRIRPPRLPRPRPRPVFNPRP | -0.602
90 | RRIRTRPPRLPRPRPRPHLIPRP | 2.85
91 | RRIRWRPPRLPRPRPRPNINPRP | -0.429
92 | RRIRPRPPRLPRPRPRPKTWPRP | 0.0474
93 | RRIRCRPPRLPRPRPRPPTGPRP | 0.232
94 | RRIRDRPPRLPRPRPRPWDSPRP | -0.000687
95 | RRIRIRPPRLPRPRPRPEDGPRP | -0.00203
96 | RRIRGRPPRLPRPRPRPVPLPRP | 0.13
97 | RRIRSRPPRLPRPRPRPVGSPRP | 0.304
98 | RRIRRRPPRLPRPRPRPDWLPRP | 0.365
99 | RRIRYRPPRLPRPRPRPYLMPRP | -0.254
100 | RRIRERPPRLPRPRPRPNMTPRP | -0.276

Row | Sequence | shrunken log2 fold change
101 | RRIRKRPPRLPRPRPRPMQDPRP | -0.0916
102 | RRIRFRPPRLPRPRPRPSHDPRP | -0.142
103 | RRIRSRPPRLPRPRPRPIKNPRP | -0.399
104 | RRIRYRPPRLPRPRPRPYPNPRP | -0.36
105 | RRIRERPPRLPRPRPRPGEKPRP | -0.00142
106 | RRIRLRPPRLPRPRPRPARDPRP | 0.426
107 | RRIRNRPPRLPRPRPRPWQHPRP | 0.178
108 | RRIRIRPPRLPRPRPRPTKMPRP | -0.116
109 | RRIRYRPPRLPRPRPRPHNTPRP | -1.28
110 | RRIRQRPPRLPRPRPRPTTHPRP | 0.00963
111 | RRIRSRPPRLPRPRPRPMVRPRP | 0.00927
112 | RRIRDRPPRLPRPRPRPAAVPRP | 0.609
113 | RRIRNRPPRLPRPRPRPCSAPRP | -0.292
114 | RRIRTRPPRLPRPRPRPTTQPRP | -0.338
115 | RRIRIRPPRLPRPRPRPMRNPRP | 0.167
116 | RRIRPRPPRLPRPRPRPGSSPRP | -0.0653
117 | RRIRCRPPRLPRPRPRPKFDPRP | -0.0305
118 | RRIRYRPPRLPRPRPRPYGNPRP | -0.00695
119 | RRIRRRPPRLPRPRPRPILCPRP | 0.48
120 | RRIRQRPPRLPRPRPRPCTIPRP | -0.00957
121 | RRIRIRPPRLPRPRPRPVMTPRP | -0.166
122 | RRIRRRPPRLPRPRPRPWTPPRP | 0.568
123 | RRIRRRPPRLPRPRPRPNIVPRP | -0.171
124 | RRIRSRPPRLPRPRPRPTAVPRP | 0.466
125 | RRIRMRPPRLPRPRPRPYVWPRP | -0.0956

Row | Sequence | shrunken log2 fold change
126 | RRIRFRPPRLPRPRPRPRTAPRP | 0.162
127 | RRIRFRPPRLPRPRPRPMLRPRP | 0.0268
128 | RRIRQRPPRLPRPRPRPRWEPRP | 0.0653
129 | RRIRYRPPRLPRPRPRPVIMPRP | -0.222
130 | RRIRRRPPRLPRPRPRPTKMPRP | 0.248
131 | RRIRFRPPRLPRPRPRPAPWPRP | 0.592
132 | RRIRIRPPRLPRPRPRPYFYPRP | -0.469
133 | RRIRLRPPRLPRPRPRPQMYPRP | -0.115
134 | RRIRMRPPRLPRPRPRPLERPRP | 0.00972
135 | RRIRKRPPRLPRPRPRPLLFPRP | 0.176
136 | RRIRNRPPRLPRPRPRPSRSPRP | -0.076
137 | RRIRCRPPRLPRPRPRPQQTPRP | -0.00158
138 | RRIRWRPPRLPRPRPRPNVYPRP | -0.234
139 | RRIRPRPPRLPRPRPRPSDGPRP | -0.26
140 | RRIRNRPPRLPRPRPRPFRMPRP | 0.00572
141 | RRIRWRPPRLPRPRPRPRFSPRP | 0.0681
142 | RRIRTRPPRLPRPRPRPAKKPRP | 0.00555
143 | RRIRHRPPRLPRPRPRPCFTPRP | -0.838
144 | RRIRDRPPRLPRPRPRPEPFPRP | -0.137
145 | RRIRWRPPRLPRPRPRPVYEPRP | -0.00561
146 | RRIRIRPPRLPRPRPRPYAVPRP | -0.937
147 | RRIRCRPPRLPRPRPRPTNNPRP | -0.619
148 | RRIRVRPPRLPRPRPRPKSSPRP | -0.0704
149 | RRIRPRPPRLPRPRPRPVESPRP | -0.0537
150 | RRIRKRPPRLPRPRPRPFCDPRP | 0.144
